Data published in patent publication US20100150950A1, “HUMAN ANTIBODIES THAT BIND CD70 AND USES THEREOF” (Medarex, Inc., priority 2006, published 2010).
Residue numbers refer to the chain shown, from its start.

T1: CD70+ renal carcinoma 786-O cells (Homo sapiens, UniProt P32970)
T1 construct: natively expressing CD70+ human cancer cell line 786-0 cells; endogenous in cells; host or cells: 786-O (ATCC CRL-1932), A-498 (HTB-44), ACHN (CRL-1611), Caki-1 (HTB-46), Caki-2 (HTB-47)
T1 sequence (P32970 1-193): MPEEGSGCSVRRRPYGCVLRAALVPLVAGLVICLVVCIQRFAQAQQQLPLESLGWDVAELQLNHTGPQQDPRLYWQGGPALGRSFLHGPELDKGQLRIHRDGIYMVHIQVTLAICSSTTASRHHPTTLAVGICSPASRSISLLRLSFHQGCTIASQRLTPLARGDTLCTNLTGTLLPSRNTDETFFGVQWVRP

B1: anti-CD70 human monoclonal antibody 69A7 (antibody, V domains shown)
VH: QVQLQESGPGLVKPSETLSLTCTVSGGSVSSDYYYWSWIRQPPGKGLEWLGYIYYSGSTNYNPSLKSRVTISVDTSKNQFSLKLRSVTTADTAVYYCARGDGDYGGNCFDYWGQGTLVTVSS
VL: EIVLTQSPATLSLSPGERATLSCRASQSVSSYLAWYQQKPGQAPRLLIFDASNRATGIPARFSGSGSGTDFTLTISSLEPEDFAVYYCQQRSNWPLTFGGGTKVEIK
notes: Human IgG from hybridoma; also called HuMAb 69A7; FITC-conjugated 69A7
B2: 2H5 NF: 2H5 HuMAb lacking fucosyl residues, expressed in CHO cell line Ms704-PF (antibody, V domains shown)
VH: QVQLVESGGGVVQPGRSLRLSCAASGFTFSSYIMHWVRQAPGKGLEWVAVISYDGRNKYYADSVKGRFTISRDNSKNTLYLQMNSLRAEDTAVYYCARDTDGYDFDYWGQGTLVTVSS
VL: B1 VL with F49Y, S92T

Columns and labels:
[1] = target: T1, CD70+ renal carcinoma 786-O cells; experiment: Blocking of mouse anti-CD70 antibody BU-69 binding; conditions: BU-69 1 μg/ml; 69A7 1, 5 or 10 μg/ml
Protocol: In this experiment, the HuMAb anti-CD70 antibody 69A7 was tested for its ability to block binding of a known mouse anti-CD70 antibody to CD70+renal carcinoma 786-O cells. 786-O cells were incubated with the mouse anti-CD70 antibody BU-69 (Ancell, Bayport, Minn.) at 1 μg/ml and the HuMAb 69A7 at 1, 5 or 10 μg/ml for 20 minutes on ice. IgG1 and IgG2 isotype control antibodies were used as negative controls. The cells were washed twice and binding was detected with a FITC-labeled anti-human IgG Ab. Flow cytometric analyses were performed using a FACSCalibur flow cytometry (Becton Dickinson, San Jose, Calif.).

[2] = system: CMV activated CD70+/CD4+ cells; experiment: CMV Ag stimulated human CD4+ T cell expansion; format: cell-based; conditions: 2 μg/ml, day 9
Protocol: CMV positive pre-screened donors were cultured in AIM-V media supplemented with 10% heat-inactivated FCS at 1×10^6 cells/ml on 24-well culture plates and stimulated with 5.0 μg/ml of CMV lysate in the presence of 2 μg/ml of biotinylated 2H5, 2H5 NF or hIgG1nf control Abs. Cells were harvested on day 9 and the number of viable cells/ml in each culture was determined by counting an aliquot using a hemocytometer and trypan blue exclusion. The cells were washed in staining buffer and blocked with 5% human serum. Biotinylated 2H5, 2H5 NF, or hIgG1nf were added to an equal volume of cells at 20 μg/ml final concentration. Cells were incubated for 30 minutes, washed and stained with anti-CD4-FITC and PE-conjugated streptavidin. Cells were again incubated for 30 minutes, washed twice and then fixed and permeabilized using BD Cytofix/Cytoperm kit. The cells were washed twice in perm/wash buffer and intracellular stained with anti-INFγ-APC (BD Clone B27). […] Cells were analyzed by flow cytometry for CD70 surface and INFγ intracellular expression by gating on live CD4+ cells. The number of CD4+/CD70+ and CD4+/INFγ+ cells/ml in each condition were calculated by multiplying the percent CD70+ or INFγ+ cells in the CD4 gate by the percent of total CD4+ cells times the total number of viable cells/ml ((%CD70+ or INFγ+)×(%CD4+)×(total viable cells/ml)).

Molecule	blocking of mouse anti-CD70 antibody BU-69 binding [1]	depletion of CMV activated CD70+/CD4+ cells [2]
B1	blocks binding	
B2		97%
